Reference: patent publication US20250262153A1

Biological target: PD-1 protein on the surface of Jurkat PD-1 NFAT line cells (UniProt Q15116)
Test: cell-based or functional assay

Chain of UniProt Q15116 (Q15116 25-288 limits assumed): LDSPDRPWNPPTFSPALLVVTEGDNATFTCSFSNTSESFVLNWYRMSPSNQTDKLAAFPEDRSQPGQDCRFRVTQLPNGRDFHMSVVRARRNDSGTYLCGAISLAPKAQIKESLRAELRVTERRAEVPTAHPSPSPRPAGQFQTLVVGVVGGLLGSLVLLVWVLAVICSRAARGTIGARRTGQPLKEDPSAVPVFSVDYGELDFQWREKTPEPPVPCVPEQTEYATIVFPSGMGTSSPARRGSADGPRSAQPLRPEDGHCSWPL

Relative specific activity, % (ED50 standard / ED50 test, Jurkat PD-1 NFAT luminescence); 20 mg/ml, histidine, trehalose 100 mg/ml, 37 C, initial control: 105% | Relative specific activity, %; 20 mg/ml, acetate pH 5.0, trehalose 80 mg/ml, 37 C, 2 weeks: 103% | Relative specific activity, %; 20 mg/ml, acetate pH 5.0, trehalose 80 mg/ml, 37 C, 4 weeks: 94% | Relative specific activity, %; 20 mg/ml, acetate pH 5.0, trehalose 80 mg/ml, 37 C, initial control: 100% | Relative specific activity, %; 20 mg/ml, acetate pH 5.0, trehalose 100 mg/ml, 37 C, 2 weeks: 93% | Relative specific activity, %; 20 mg/ml, acetate pH 5.0, trehalose 100 mg/ml, 37 C, 4 weeks: 99% | Relative specific activity, %; 20 mg/ml, acetate pH 5.0, trehalose 100 mg/ml, 37 C, initial control: 89% | Relative specific activity, %; 20 mg/ml, histidine, trehalose 80 mg/ml, 37 C, 2 weeks: 103% | Relative specific activity, %; 20 mg/ml, histidine, trehalose 80 mg/ml, 37 C, 4 weeks: 94% | Relative specific activity, %; 20 mg/ml, histidine, trehalose 80 mg/ml, 37 C, initial control: 100% | Relative specific activity, %; 20 mg/ml, histidine, trehalose 100 mg/ml, 37 C, 2 weeks: 97% | Relative specific activity, %; 20 mg/ml, histidine, trehalose 100 mg/ml, 37 C, 4 weeks: 110% | Relative specific activity, %; 100 mg/ml, acetate pH 5.0, trehalose 80 mg/ml, 37 C, 2 weeks: 94% | Relative specific activity, %; 100 mg/ml, acetate pH 5.0, trehalose 80 mg/ml, 37 C, 4 weeks: 105% | Relative specific activity, %; 100 mg/ml, acetate pH 5.0, trehalose 80 mg/ml, 37 C, initial control: 89% | Relative specific activity, %; 100 mg/ml, acetate pH 5.0, trehalose 100 mg/ml, 37 C, 2 weeks: 112% | Relative specific activity, %; 100 mg/ml, acetate pH 5.0, trehalose 100 mg/ml, 37 C, 4 weeks: 97% | Relative specific activity, %; 100 mg/ml, acetate pH 5.0, trehalose 100 mg/ml, 37 C, initial control: 107% | Relative specific activity, %; 100 mg/ml, histidine, trehalose 80 mg/ml, 37 C, 2 weeks: 94% | Relative specific activity, %; 100 mg/ml, histidine, trehalose 80 mg/ml, 37 C, 4 weeks: 105% | Relative specific activity, %; 100 mg/ml, histidine, trehalose 80 mg/ml, 37 C, initial control: 89% | Relative specific activity, %; 100 mg/ml, histidine, trehalose 100 mg/ml, 37 C, 2 weeks: 104% | Relative specific activity, %; 100 mg/ml, histidine, trehalose 100 mg/ml, 37 C, 4 weeks: 97% | Relative specific activity, %; 100 mg/ml, histidine, trehalose 100 mg/ml, 37 C, initial control: 101% | Relative specific activity, %; 150 mg/ml, acetate pH 5.0, trehalose 80 mg/ml, 37 C, 2 weeks: 99% | Relative specific activity, %; 150 mg/ml, acetate pH 5.0, trehalose 80 mg/ml, 37 C, 4 weeks: 108% | Relative specific activity, %; 150 mg/ml, acetate pH 5.0, trehalose 80 mg/ml, 37 C, initial control: 91% | Relative specific activity, %; 150 mg/ml, acetate pH 5.0, trehalose 100 mg/ml, 37 C, 2 weeks: 106% | Relative specific activity, %; 150 mg/ml, acetate pH 5.0, trehalose 100 mg/ml, 37 C, 4 weeks: 103% | Relative specific activity, %; 150 mg/ml, acetate pH 5.0, trehalose 100 mg/ml, 37 C, initial control: 92% | Relative specific activity, %; 150 mg/ml, histidine, trehalose 80 mg/ml, 37 C, 2 weeks: 99% | Relative specific activity, %; 150 mg/ml, histidine, trehalose 80 mg/ml, 37 C, 4 weeks: 108% | Relative specific activity, %; 150 mg/ml, histidine, trehalose 80 mg/ml, 37 C, initial control: 91% | Relative specific activity, %; 150 mg/ml, histidine, trehalose 100 mg/ml, 37 C, 2 weeks: 100% | Relative specific activity, %; 150 mg/ml, histidine, trehalose 100 mg/ml, 37 C, 4 weeks: 105% | Relative specific activity, %; 150 mg/ml, histidine, trehalose 100 mg/ml, 37 C, initial control: 97%
B1: prolgolimab (antibody, from a related filing, V domains shown)
VH: QVQLVQSGGGLVQPGGSLRLSCAASGFTFSSYWMYWVRQVPGKGLEWVSAIDTGGGRTYYADSVKGRFAISRVNAKNTMYLQMNSLRAEDTAVYYCARDEGGGTGWGVLKDWPYGLDAWGQGTLVTVSS
VL: QPVLTQPLSVSVALGQTARITCGGNNIGSKNVHWYQQKPGQAPVLVIYRDSNRPSGIPERFSGSNSGNTATLTISRAQAGDEADYYCQVWDSSTAVFGTGTKLTVLQ
